Results published in PMC11987610, “Pseudomonas aeruginosa PfpI is a methylglyoxalase” (The Journal of Biological Chemistry, 2025).

What was measured:
[1] = biological target: T1, YhbO (Escherichia coli, UniProt P45470); assay: 1D 1H NMR of end products; type: biochemical; conditions: 1 mM MGO, 20 μg enzyme, 50 mM PBS with 5% DMSO-d6, overnight, 4 °C
T1 construct: full-length ORF with N-terminal His6 tag (pET-19m), E. coli Rosetta (DE3); tagged mass 20,858 Da
T1 sequence (P45470 1-172): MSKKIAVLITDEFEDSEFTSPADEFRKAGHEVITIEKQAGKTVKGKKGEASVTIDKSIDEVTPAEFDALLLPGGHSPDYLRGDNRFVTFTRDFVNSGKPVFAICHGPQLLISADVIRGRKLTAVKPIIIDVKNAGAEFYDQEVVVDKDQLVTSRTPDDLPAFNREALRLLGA

[2] = biological target: Pseudomonas aeruginosa PfpI (PA0355), recombinant, N-terminal His6 tag (P. aeruginosa PAO1); assay: AUC; sedimentation velocity; 25 mM Tris-HCl (pH 8.0), 100 mM NaCl; 0.5, 1.0 and 2.0 mg/ml PfpI; 20 C, 24 h
[3] = substrate: CC(=O)C=O; assay: colorimetric lactate assay after heat quench, Michaelis-Menten fit; type: biochemical, Pseudomonas aeruginosa; conditions: PBS, 37 °C, 0.2 μM enzyme, glutathione-independent

CC(=O)C=O [methylglyoxal]
1D 1H NMR of end products [1]: both enzymes quantitatively convert MGO to lactate

Pseudomonas aeruginosa PfpI (PA0355), recombinant, N-terminal His6 tag (enzyme)
stoichiometry N [2]: 2

B1: PfpI (Pseudomonas aeruginosa PAO1) (protein)
chain: MTQSLHGKVVAALVTDGFEQVELTGPKKALEDAGATVRILSDKAGEVRGWNHHQPAEAFRVDGTFEDASLDDYDALLLPGGVINSDQIRSLAKAQELAIRAEQASKPVAVICHGAWLLISAGLVQGRTLTSWPSLKDDINNAGGHWVDQEVAVDGKLVSSRKPEDIPAFNRRFIEILAG
notes: full-length ORF (540 bp) with N-terminal His6 tag (pET-19m), E. coli Rosetta (DE3); tagged mass 21,246 Da
Km [3]: 369 ± 139 µM
kcat [3]: 1.72 ± 0.367 s⁻¹
